In article PMC6008203:
Numbering of substitutions follows the chain as printed. Numbers in names are those of the source.

B1: PtmA2 (Streptomyces platensis; A497K) (protein)
chain: MQHTTIGDVLREHRRSHPGRTALVDGPVRLTWPELDDRVNRLAGSLAASGIGRGDRIMWLGQNSFRVYELIAAAGKLGAMVCVGYWRWAPPEMEFALRDFDPHLVVWQHQEIHETVARTREALGSDDTARWLRHDSAPQDPDGYEAFLAAGGLADPDLDIDPDSPVLVLYTAAMSGRQCGSLLSHTNLIAMATAAAWLGDIDHTTAFLNSGPMFHIGNHQFWGMPTLLMAGKNVIVRRVVAEEVRDLLVAEECTHAFLMPPTVAEIVRLNRDTGHDLSRLRATVAPHLWEGMATTDTSRFTRSGAAAGRGYGQTELSGFAVTAAYGGPAAGNAGRPGPGLTVRVLDTAGRECAVGEAGEICARGTVVHRGYWNRDEVNAHRFRSGWWHTTDLGRREPDGSLTFLGTTTRMLKSAAENIFPAEVENCIEQHPAVREAAVIGVPNTRWAQDVKAVVVLEPDAGVSEQEIIDHCRPRIASYKKPKSVAFAAALPRTVSGKRDYDALDKEYGGGGYPGAATLGPGR
B2: PtmA2 (Streptomyces platensis; A172S/A173G/A497K/C179K/M174T/Q178P) (protein)
chain: B1 chain with A172S, A173G, M174T, Q178P, C179K
B3: PtmA2 (Streptomyces platensis) (protein)
chain: B1 chain with K497A
B4: PtmA2 (Streptomyces platensis; A172S/A173G/C179K/M174T/Q178P) (protein)
chain: B1 chain with A172S, A173G, M174T, Q178P, C179K, K497A
B5: PtmA2 (Streptomyces platensis; E416A) (protein)
chain: B1 chain with E416A, K497A

Substrate: CC(C)(COP(=O)(O)OP(=O)(O)OC[C@H]1O[C@@H](n2cnc3c(N)ncnc32)[C@H](O)[C@@H]1OP(=O)(O)O)[C@@H](O)C(=O)NCCC(=O)NCCS
Assay: purified protein
Format: biochemical, Streptomyces platensis
Conditions: saturating 6 (100 μM), Tris pH 7.8, 25 °C

| Protein | Km | Vmax | kcat | kcat/Km | also measured |
| --- | --- | --- | --- | --- | --- |
| B1 | 6.8 ± 1.0 µM | 4.74 µmol/min | 32 s⁻¹ | 4.7e+06 M⁻¹ s⁻¹ |  |
| B2 |  |  |  |  | Km (A497K/P-loop mutant): 69 ± 11 µM; Vmax (A497K/P-loop mutant): 5.94 µmol/min; kcat (A497K/P-loop mutant): 10 s⁻¹; kcat/Km (A497K/P-loop mutant): 140000 M⁻¹ s⁻¹ |
| B3 | 6.2 ± 0.6 µM | 5.82 µmol/min | 20 s⁻¹ | 3.2e+06 M⁻¹ s⁻¹ |  |
| B4 |  |  |  |  | Km (P-loop mutant): 70 ± 8 µM; Vmax (P-loop mutant): 8.88 µmol/min; kcat (P-loop mutant): 7.4 s⁻¹; kcat/Km (P-loop mutant): 110000 M⁻¹ s⁻¹ |
| B5 | 7.8 ± 1.2 µM | 5.34 µmol/min | 0.18 s⁻¹ | 23000 M⁻¹ s⁻¹ |  |
